According to patent EP3639857B1, “ERYTHROPOIETIN COMPOSITION WITH IMPROVED STABILITY AND METHOD FOR PREPARING SAME” (Hankook Korus Pharmaceutical Co. Ltd., priority 2017, dated 2018):

Key:
B6D2F1 mice = assay: Pharmacodynamics in mice after intraperitoneal administration, CBC test; assay type: in vivo; conditions: for RBC Increase (%) / Reticulocyte (×10^9/L) Increase (%): 7d vs 0d
Description: Pharmacodynamics were measured by a method of intraperitoneally administrating the PEG-EPO conjugates to B6D2F1 mice (female, 7 weeks old, body weight of 20.02±0.88 g). Specifically, 1.25, 2.5, 5, or 20 µg/kg of EPO, PEG-EPO-TS, or PEG-EPO-Mircera drugs were administered, after 7 days, 200 to 300 µl of the blood was collected from the facial vein by using a lancet into a micro EDTA tube (MiniCollect, Greiner Bio One International GmbH), the shaker was used to sufficiently mix the EDTA to prevent coagulation, and then, the CBC test was performed by using the ADVIA 2120i (Siemens AG) equipment within one hour. The results are shown in Table 10 below with the comparison of CBC results before drug administration.

[1] = Pharmacokinetics in rat after intravenous administration, erythropoietin in blood by ELISA, non-compartmental analysis; assay type: in vivo; conditions: SD rats
Description: Pharmacokinetics were measured by a method of intravenously administrating PEG-EPO conjugates to SD rats (male, 7 weeks old, body weight of 243.53±14.33 g). Specifically, after the administration of 3 µg/kg of EPO, PEG-EPO-TS, or PEG-EPO-Mircera, after 0, 0.5, 1, 2, 4, 8, 24 (1 d), 48 (2 d), 96 (4 d), and 168 ([…]) hours, blood was collected from the rats with an SST tube, centrifuged at 6,000 rpm for 10 minutes at 4°C, and stored at -80°C until the concentration measurement. The concentration of erythropoietin in the blood was measured by ELISA.
The pharmacokinetic analysis of the measured concentration results was performed by non-compartmental analysis (NCA), and the analysis was performed with the program of Phoenix WinNonlin 7.0 (Certara USA Inc., Princeton, NJ, USA). Individual NCA parameters were calculated.

[2] = i.p. 20 µg/kg, 0d (before drug administration)

PEG-EPO-Mircera: commercially available pegylated EPO (Mircera, Roche Korea Co., Ltd.), comparative group [reference compound]
Reticulocyte (×10^9/L) 0d (B6D2F1 mice; i.p. 1.25 µg/kg, 0d (before drug administration)): 228. 40 ×10^9/L
Reticulocyte (%) 7d (B6D2F1 mice; i.p. 1.25 µg/kg): 4.78%
RBC Increase (%) (B6D2F1 mice; i.p. 1.25 µg/kg): 15.03%
Reticulocyte (×10^9/L) Increase (%) (B6D2F1 mice; i.p. 1.25 µg/kg): 98.51%
Reticulocyte (×10^9/L) 0d (B6D2F1 mice; i.p. 2.5 µg/kg, 0d (before drug administration)): 143. 50 ×10^9/L
RBC(×10^6/µl) 7d (B6D2F1 mice; i.p. 2.5 µg/kg): 12. 16 ×10^6/µl
Reticulocyte (%) 7d (B6D2F1 mice; i.p. 2.5 µg/kg): 4.05%
RBC Increase (%) (B6D2F1 mice; i.p. 2.5 µg/kg): 37.25%
Reticulocyte (×10^9/L) Increase (%) (B6D2F1 mice; i.p. 2.5 µg/kg): 242.79%
Reticulocyte (×10^9/L) 0d (B6D2F1 mice; i.p. 5 µg/kg, 0d (before drug administration)): 134. 10 ×10^9/L
RBC(×10^6/µl) 7d (B6D2F1 mice; i.p. 5 µg/kg): 12. 01 ×10^6/µl
Reticulocyte (×10^9/L) 7d (B6D2F1 mice; i.p. 5 µg/kg): 1548. 00 ×10^9/L
RBC Increase (%) (B6D2F1 mice; i.p. 5 µg/kg): 31.26%
RBC(×10^6/µl) 0d (B6D2F1 mice; [2]): 10. 43 ×10^6/µl
Reticulocyte (×10^9/L) 0d (B6D2F1 mice; [2]): 194. 70 ×10^9/L
RBC(×10^6/µl) 7d (B6D2F1 mice; i.p. 20 µg/kg): 13. 55 ×10^6/µl
Reticulocyte (×10^9/L) 7d (B6D2F1 mice; i.p. 20 µg/kg): 2347. 00 ×10^9/L
RBC Increase (%) (B6D2F1 mice; i.p. 20 µg/kg): 29.91%
concentration of erythropoietin in the blood 0 h ([1]; IV 3 µg/kg, 0 h): 0
concentration of erythropoietin in the blood 0.5 h ([1]; IV 3 µg/kg, 0.5 h): 8.7
concentration of erythropoietin in the blood 1h ([1]; IV 3 µg/kg, 1 h): 7.6
concentration of erythropoietin in the blood 2h ([1]; IV 3 µg/kg, 2 h): 6.3
concentration of erythropoietin in the blood 4h ([1]; IV 3 µg/kg, 4 h): 6.8
concentration of erythropoietin in the blood 8h ([1]; IV 3 µg/kg, 8 h): 4.9
concentration of erythropoietin in the blood 24h ([1]; IV 3 µg/kg, 24 h): 3.6
concentration of erythropoietin in the blood 48h ([1]; IV 3 µg/kg, 48 h): 2.1
concentration of erythropoietin in the blood 96h ([1]; IV 3 µg/kg, 96 h): 0.7
concentration of erythropoietin in the blood 168h ([1]; IV 3 µg/kg, 168 h): 0.1
AUCinf ([1]; IV 3 µg/kg, NCA, administration to infinity): 288.60 ng·h/mL
AUClast ([1]; IV 3 µg/kg, NCA, administration to last measured concentration): 284.59 ng·h/mL
C1 ([1]; IV 3 µg/kg, NCA, clearance): 112.24 mL/h/kg
T1/2 ([1]; IV 3 µg/kg, NCA, half-life): 27.83 h
C0 ([1]; IV 3 µg/kg, NCA, initial concentration): 9.96 ng/mL
Cmax ([1]; IV 3 µg/kg, NCA, maximal concentration): 8.7 ng/mL
MRTlast ([1]; IV 3 µg/kg, NCA, mean residence time to last measured concentration): 36.87 h
AUC%Extrap (%) ([1]; IV 3 µg/kg, NCA, percentage of extrapolated area): 1.39%
Tmax ([1]; IV 3 µg/kg, NCA, time at maximal concentration): 30 min
VZ ([1]; IV 3 µg/kg, NCA, volume of distribution): 4506.67 mL/kg
Vss ([1]; IV 3 µg/kg, NCA, volume of distribution at steady state): 4406.32 mL/kg
half-life ([1]; IV administration): 27.8 h
